From US6365161

What was measured:
[1] = molecular target: human FcγRI (CD64) on cells (human) (UniProt P12314); experiment: flow cytometry, fluorescein-conjugated antibody on peripheral blood monocytes
[2] = molecular target: soluble fusion protein consisting of the extracellular domain of human FcγRI and human IgM heavy chain (sFcγRI-µ) (human) (UniProt P12314); experiment: ELISA on captured FcγRI/IgM heavy chain fusion protein, against a nonspecific human IgG1
Sequence of soluble fusion protein consisting of the extracellular domain of human FcγRI and human IgM heavy chain (sFcγRI-µ) (human) (P12314 other isoform, or with tags, fused parts or gaps limits assumed): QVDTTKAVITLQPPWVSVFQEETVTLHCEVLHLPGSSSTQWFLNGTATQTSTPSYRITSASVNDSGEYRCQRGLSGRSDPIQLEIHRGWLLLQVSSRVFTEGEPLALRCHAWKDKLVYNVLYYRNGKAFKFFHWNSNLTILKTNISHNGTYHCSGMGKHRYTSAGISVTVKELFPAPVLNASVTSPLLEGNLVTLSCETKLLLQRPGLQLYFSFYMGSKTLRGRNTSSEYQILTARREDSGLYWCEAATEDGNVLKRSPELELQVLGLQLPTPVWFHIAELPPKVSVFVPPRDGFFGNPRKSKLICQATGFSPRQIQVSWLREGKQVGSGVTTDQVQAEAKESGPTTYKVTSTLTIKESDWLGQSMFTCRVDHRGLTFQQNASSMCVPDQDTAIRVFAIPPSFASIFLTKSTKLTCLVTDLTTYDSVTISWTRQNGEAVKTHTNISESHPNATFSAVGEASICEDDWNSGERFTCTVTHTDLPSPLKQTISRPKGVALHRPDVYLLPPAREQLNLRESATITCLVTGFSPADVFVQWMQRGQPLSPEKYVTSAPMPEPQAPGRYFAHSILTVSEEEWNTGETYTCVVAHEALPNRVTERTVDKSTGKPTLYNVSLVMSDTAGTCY

Sequence of human FcγRI (CD64) on cells (human) (P12314 16-374): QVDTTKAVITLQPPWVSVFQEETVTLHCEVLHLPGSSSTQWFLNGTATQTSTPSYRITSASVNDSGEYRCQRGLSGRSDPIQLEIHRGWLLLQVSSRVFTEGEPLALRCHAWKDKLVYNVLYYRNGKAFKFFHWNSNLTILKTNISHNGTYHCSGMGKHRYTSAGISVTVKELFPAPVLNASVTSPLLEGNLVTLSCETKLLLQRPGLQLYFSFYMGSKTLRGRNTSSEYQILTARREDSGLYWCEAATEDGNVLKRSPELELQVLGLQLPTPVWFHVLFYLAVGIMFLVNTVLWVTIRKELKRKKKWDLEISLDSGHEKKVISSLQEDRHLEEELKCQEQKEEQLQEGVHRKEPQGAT

B1: humanized anti-FcγRI antibody H22 (KOL VH/REI Vκ mAb) (antibody, from a related filing, V domains shown)
VH: EVQLVESGGGVVQPGRSLRLSCSSSGFIFSDNYMYWVRQAPGKGLEWVATISDGGSYTYYPDSVKGRFTISRDNSKNTLFLQMDSLRPEDTGVYFCARGYYRYEGAMDYWGQGTPVTVSS
VL: DIQLTQSPSSLSASVGDRVTITCKSSQSVLYSSNQKNYLAWYQQKPGKAPKLLIYWASTRESGVPSRFSGSGSGTDFTFTISSLQPEDIATYYCHQYLSSWTFGQGTKVEIK
Antibody sites per cell (antibody sites per cell) [1]: 10500
percent of binding via the Fv portion [2]: > 95%
